EC50 data for two substances are collected here from patent US20260234222A1.

The experiment addresses SARS-CoV-2 Delta Spike antigen (SARS-CoV-2 Delta). The experiment is described as follows: ELISA, Spike antigen coated on plate.

On to Anti-S1 antibody DZIF-10c, for which the EC50 came out at 6.9 nM. Substance Anti-S1 antibody ImdevimAb gave an EC50 of 0.01 nM.
